{"source": "patent US20060078550", "proteins": {"B1": {"name": "recombinant His-tagged porcine fgl2 protein generated by pfgl2bv infection of insect cells (protein)", "chain": "MKLKLSNWCWLSSAVLAAYGFLVVANNETEEIKDEAAKDACPVRLESRGKCEEVGGCPYQVNLPPLTLQLPKQFGRIEEVFKEVQNLKEIVNSLKKTCQDCRLQADDNRDPGRNGLLSPGTGAPGEADDSRVRELENEVNKLSSDLKNAKEEIDGLQGRLEKLSLVNMNNIENYVDNKVANLTFAVNSLDGKCSSRCPSQEQIQSRPVQHLIYKDCSEYYTIGKRSSEIYRVTPDPKNSSFEVYCDMETMGGGWTVLQARLDGSTNFTRTWRDYKVGFGNLRREFWLGNDKIHLLTKSKDMILRIDLEDFNGIKLYALYDHFYVANEFLKYRLHIGNYNGTAGDALRFSKHYNHDMKYFTTPDRDNDRYPSGNCGLYYSSGWWFDACLSANLNGKYYNQKYRGVRNGIFWGTWPGISEAQPGGYRSSFKEAKMMIRPKYFKP"}}, "biological_target": "human prothrombin, P00734", "data": [{"protein": "B1", "values": [{"measurement": "thrombin activity (chromogenic substrate Chromozym TH, change in OD 405 nm over time)", "result": "A significant level of thrombin activity was generated by pfgl2bv-infected cell lysates in contrast to wild-type baculovirus-infected and uninfected controls"}]}]}
